{"source": "patent US20160053011A1", "about": "(ABCLON, published 2016)"}
{"molecular_target": "T1, HER2-ECD (ELISA antigen of Examples 13 and 14) (human, UniProt P04626 23-652)", "T1 construct": "extracellular domain", "assay": "ELISA, periplasmic extract on HER2-ECD"}
{"binder": "hz1E11 CDR-L3 Y92A (antibody, V domains shown, Alanine scanning variant, expressed in bacteria, periplasmic extract) VH: EVQLVESGGGLVQPGGSLRLSCAASGFTFSSYTMSWVRQAPGKGLEWVAYISNGGGSTYYPDTVKGRFTISRDNAKNSLYLQMNSLRAEDTAVYYCARHLGGTASFDYWGQGTLVTVSS VL: DIQMTQSPSSLSASVGDRVTITCLASQTIGTWLAWYQQKPGKAPKLLIYVATSLADGVPSRFSGSGSGTDFTLTISSLQPEDFATYYCQQLASTPWTFGQGTKVEIK", "binding result": "binds"}
{"binder": "hz1E11 CDR-H3 H95A (antibody, name in Kabat numbering, V domains shown, Alanine scanning variant, expressed in bacteria, periplasmic extract) VH: EVQLVESGGGLVQPGGSLRLSCAASGFTFSSYTMSWVRQAPGKGLEWVAYISNGGGSTYYPDTVKGRFTISRDNAKNSLYLQMNSLRAEDTAVYYCARALGGTASFDYWGQGTLVTVSS VL: DIQMTQSPSSLSASVGDRVTITCLASQTIGTWLAWYQQKPGKAPKLLIYVATSLADGVPSRFSGSGSGTDFTLTISSLQPEDFATYYCQQLYSTPWTFGQGTKVEIK", "binding result": "binds"}
{"binder": "hz1E11 CDR-L3 Q89A (antibody, V domains shown, Alanine scanning variant, expressed in bacteria, periplasmic extract) VH: EVQLVESGGGLVQPGGSLRLSCAASGFTFSSYTMSWVRQAPGKGLEWVAYISNGGGSTYYPDTVKGRFTISRDNAKNSLYLQMNSLRAEDTAVYYCARHLGGTASFDYWGQGTLVTVSS VL: DIQMTQSPSSLSASVGDRVTITCLASQTIGTWLAWYQQKPGKAPKLLIYVATSLADGVPSRFSGSGSGTDFTLTISSLQPEDFATYYCAQLYSTPWTFGQGTKVEIK", "binding result": "binds"}
{"binder": "hz1E11 CDR-L3 Q90A (antibody, V domains shown, Alanine scanning variant, expressed in bacteria, periplasmic extract) VH: EVQLVESGGGLVQPGGSLRLSCAASGFTFSSYTMSWVRQAPGKGLEWVAYISNGGGSTYYPDTVKGRFTISRDNAKNSLYLQMNSLRAEDTAVYYCARHLGGTASFDYWGQGTLVTVSS VL: DIQMTQSPSSLSASVGDRVTITCLASQTIGTWLAWYQQKPGKAPKLLIYVATSLADGVPSRFSGSGSGTDFTLTISSLQPEDFATYYCQALYSTPWTFGQGTKVEIK", "binding result": "binds"}
{"binder": "hz1E11 CDR-L3 L91A (antibody, V domains shown, Alanine scanning variant, expressed in bacteria, periplasmic extract) VH: EVQLVESGGGLVQPGGSLRLSCAASGFTFSSYTMSWVRQAPGKGLEWVAYISNGGGSTYYPDTVKGRFTISRDNAKNSLYLQMNSLRAEDTAVYYCARHLGGTASFDYWGQGTLVTVSS VL: DIQMTQSPSSLSASVGDRVTITCLASQTIGTWLAWYQQKPGKAPKLLIYVATSLADGVPSRFSGSGSGTDFTLTISSLQPEDFATYYCQQAYSTPWTFGQGTKVEIK", "binding result": "binds"}
{"binder": "hz1E11 CDR-H3 T99A (antibody, name in Kabat numbering, V domains shown, Alanine scanning variant, expressed in bacteria, periplasmic extract) VH: EVQLVESGGGLVQPGGSLRLSCAASGFTFSSYTMSWVRQAPGKGLEWVAYISNGGGSTYYPDTVKGRFTISRDNAKNSLYLQMNSLRAEDTAVYYCARHLGGAASFDYWGQGTLVTVSS VL: DIQMTQSPSSLSASVGDRVTITCLASQTIGTWLAWYQQKPGKAPKLLIYVATSLADGVPSRFSGSGSGTDFTLTISSLQPEDFATYYCQQLYSTPWTFGQGTKVEIK", "binding result": "binds"}
{"binder": "hz1E11 CDR-H3 L96A (antibody, name in Kabat numbering, V domains shown, Alanine scanning variant, expressed in bacteria, periplasmic extract) VH: EVQLVESGGGLVQPGGSLRLSCAASGFTFSSYTMSWVRQAPGKGLEWVAYISNGGGSTYYPDTVKGRFTISRDNAKNSLYLQMNSLRAEDTAVYYCARHAGGTASFDYWGQGTLVTVSS VL: DIQMTQSPSSLSASVGDRVTITCLASQTIGTWLAWYQQKPGKAPKLLIYVATSLADGVPSRFSGSGSGTDFTLTISSLQPEDFATYYCQQLYSTPWTFGQGTKVEIK", "binding result": "binds"}
{"binder": "hz1E11 CDR-H3 S100aA (antibody, name in Kabat numbering, V domains shown, Alanine scanning variant, expressed in bacteria, periplasmic extract) VH: EVQLVESGGGLVQPGGSLRLSCAASGFTFSSYTMSWVRQAPGKGLEWVAYISNGGGSTYYPDTVKGRFTISRDNAKNSLYLQMNSLRAEDTAVYYCARHLGGTAAFDYWGQGTLVTVSS VL: DIQMTQSPSSLSASVGDRVTITCLASQTIGTWLAWYQQKPGKAPKLLIYVATSLADGVPSRFSGSGSGTDFTLTISSLQPEDFATYYCQQLYSTPWTFGQGTKVEIK", "binding result": "binds"}
{"binder": "hz1E11 CDR-L3 T94A (antibody, V domains shown, Alanine scanning variant, expressed in bacteria, periplasmic extract) VH: EVQLVESGGGLVQPGGSLRLSCAASGFTFSSYTMSWVRQAPGKGLEWVAYISNGGGSTYYPDTVKGRFTISRDNAKNSLYLQMNSLRAEDTAVYYCARHLGGTASFDYWGQGTLVTVSS VL: DIQMTQSPSSLSASVGDRVTITCLASQTIGTWLAWYQQKPGKAPKLLIYVATSLADGVPSRFSGSGSGTDFTLTISSLQPEDFATYYCQQLYSAPWTFGQGTKVEIK", "binding result": "binds"}
{"binder": "hz1E11 CDR-L3 S93A (antibody, V domains shown, Alanine scanning variant, expressed in bacteria, periplasmic extract) VH: EVQLVESGGGLVQPGGSLRLSCAASGFTFSSYTMSWVRQAPGKGLEWVAYISNGGGSTYYPDTVKGRFTISRDNAKNSLYLQMNSLRAEDTAVYYCARHLGGTASFDYWGQGTLVTVSS VL: DIQMTQSPSSLSASVGDRVTITCLASQTIGTWLAWYQQKPGKAPKLLIYVATSLADGVPSRFSGSGSGTDFTLTISSLQPEDFATYYCQQLYATPWTFGQGTKVEIK", "binding result": "binds"}
{"molecular_target": "T2, HER2-ECD-His protein (human, UniProt P04626 23-652)", "T2 construct": "extracellular domain; not shown: His tag", "assay": "SPR, IgG captured by goat anti-human IgG on CM5, HER2-ECD-His analyte", "protocol": "The goat anti-human IgG (Invitrogen, #H10500) at a concentration of 2000 RU was immobilized to a CM5 sensor chip via ECD/NHS method. Then, the antibodies were allowed to bind at a rate of 50 μL/min for 5 minutes, and allowed the buffer to flow thereonto for 5 minutes for stabilization purpose. […] After analyzing each of the concentrations, they were recycled using 10 mM Glycine (pH 1.5) and performed the subsequent assays. The affinities of the antibodies were analyzed via BIAevaluation software.", "units": {"Kd": "nM", "fold decrease in Koff (kd) compared to hz1E11": "fold", "fold improvement of affinity compared to hz1E11": "fold", "koff": "s⁻¹", "kon": "M⁻¹ s⁻¹"}}
{"binder": "hz1E11-133 (IgG) (antibody, V domains shown, heavy chain variable region the same as hz1E11) VH: EVQLVESGGGLVQPGGSLRLSCAASGFTFSSYTMSWVRQAPGKGLEWVAYISNGGGSTYYPDTVKGRFTISRDNAKNSLYLQMNSLRAEDTAVYYCARHLGGTASFDYWGQGTLVTVSS VL: DIQMTQSPSSLSASVGDRVTITCLASQTIGTWLAWYQQKPGKAPKLLIYVATSLADGVPSRFSGSGSGTDFTLTISSLQPEDFATYYCQQNAYAPWTFGQGTKVEIK", "Kd": 1.5, "fold decrease in Koff (kd) compared to hz1E11": 8.4, "fold improvement of affinity compared to hz1E11": 15, "koff": "9.9e-05", "kon": 64000}
{"binder": "hz1E11-3 (IgG) (antibody, V domains shown, heavy chain variable region the same as hz1E11) VH: EVQLVESGGGLVQPGGSLRLSCAASGFTFSSYTMSWVRQAPGKGLEWVAYISNGGGSTYYPDTVKGRFTISRDNAKNSLYLQMNSLRAEDTAVYYCARHLGGTASFDYWGQGTLVTVSS VL: DIQMTQSPSSLSASVGDRVTITCLASQTIGTWLAWYQQKPGKAPKLLIYVATSLADGVPSRFSGSGSGTDFTLTISSLQPEDFATYYCDQMYSTPWTFGQGTKVEIK", "Kd": 5.2, "koff": 0.0002, "kon": 38000}
{"binder": "hz1E11-154 (IgG) (antibody, V domains shown, heavy chain variable region the same as hz1E11) VH: EVQLVESGGGLVQPGGSLRLSCAASGFTFSSYTMSWVRQAPGKGLEWVAYISNGGGSTYYPDTVKGRFTISRDNAKNSLYLQMNSLRAEDTAVYYCARHLGGTASFDYWGQGTLVTVSS VL: DIQMTQSPSSLSASVGDRVTITCLASQTIGTWLAWYQQKPGKAPKLLIYVATSLADGVPSRFSGSGSGTDFTLTISSLQPEDFATYYCQQTAFSPWTFGQGTKVEIK", "Kd": 1.1, "fold decrease in Koff (kd) compared to hz1E11": 8.4, "fold improvement of affinity compared to hz1E11": 20, "koff": "9.9e-05", "kon": 86000}
{"molecular_target": "T2, HER2-ECD-His protein", "assay": "SPR (Biacore 3000), HER2-ECD-His amine-coupled to CM5, periplasmic extract as analyte", "protocol": "In order to select clones with improved Koff among the selected clones, the clones were analyzed via Biacore 3000 (GE Healthcare). The HER2-ECD-His protein was immobilized to a CM5 sensor chip via an amine coupling method using ECD/NHS. […] The Koff value for each antibody was analyzed via BIAevaluation software.", "units": {"Degree of reduction (Fold) of koff against hz1E11": "fold"}}
{"binder": "M1-L-A1-3-1C3 (hz1E11-3), periplasmic extract (antibody, V domains shown, Library clone expressed in bacteria with IPTG, tested as periplasmic extract; LCDR3 DQMYSTPWT) VH: EVQLVESGGGLVQPGGSLRLSCAASGFTFSSYTMSWVRQAPGKGLEWVAYISNGGGSTYYPDTVKGRFTISRDNAKNSLYLQMNSLRAEDTAVYYCARHLGGTASFDYWGQGTLVTVSS VL: DIQMTQSPSSLSASVGDRVTITCLASQTIGTWLAWYQQKPGKAPKLLIYVATSLADGVPSRFSGSGSGTDFTLTISSLQPEDFATYYCDQMYSTPWTFGQGTKVEIK", "Degree of reduction (Fold) of koff against hz1E11": 7.4}
{"binder": "M3-L-A1-3-1F11 (hz1E11-154), periplasmic extract (antibody, V domains shown, Library clone expressed in bacteria with IPTG, tested as periplasmic extract; LCDR3 QQTAFSPWT) VH: EVQLVESGGGLVQPGGSLRLSCAASGFTFSSYTMSWVRQAPGKGLEWVAYISNGGGSTYYPDTVKGRFTISRDNAKNSLYLQMNSLRAEDTAVYYCARHLGGTASFDYWGQGTLVTVSS VL: DIQMTQSPSSLSASVGDRVTITCLASQTIGTWLAWYQQKPGKAPKLLIYVATSLADGVPSRFSGSGSGTDFTLTISSLQPEDFATYYCQQTAFSPWTFGQGTKVEIK", "Degree of reduction (Fold) of koff against hz1E11": 9.7}
{"binder": "M1-LH-A3-3-1A6 (antibody, name in Kabat numbering, V domains shown, hz1E11 library clone, periplasmic extract) VH: EVQLVESGGGLVQPGGSLRLSCAASGFTFSSYTMSWVRQAPGKGLEWVAYISNGGGSTYYPDTVKGRFTISRDNAKNSLYLQMNSLRAEDTAVYYCARNYGGTASFDYWGQGTLVTVSS VL: DIQMTQSPSSLSASVGDRVTITCLASQTIGTWLAWYQQKPGKAPKLLIYVATSLADGVPSRFSGSGSGTDFTLTISSLQPEDFATYYCQQLVRTPWTFGQGTKVEIK", "Degree of reduction (Fold) of koff against hz1E11": 5.8}
{"binder": "M3-L-A1-3-2C2 (antibody, V domains shown, hz1E11 library clone, periplasmic extract) VH: EVQLVESGGGLVQPGGSLRLSCAASGFTFSSYTMSWVRQAPGKGLEWVAYISNGGGSTYYPDTVKGRFTISRDNAKNSLYLQMNSLRAEDTAVYYCARHLGGTASFDYWGQGTLVTVSS VL: DIQMTQSPSSLSASVGDRVTITCLASQTIGTWLAWYQQKPGKAPKLLIYVATSLADGVPSRFSGSGSGTDFTLTISSLQPEDFATYYCQQLGFIPWTFGQGTKVEIK", "Degree of reduction (Fold) of koff against hz1E11": 2}
{"binder": "M3-L-A3-4-2E8 (antibody, V domains shown, hz1E11 library clone, periplasmic extract) VH: EVQLVESGGGLVQPGGSLRLSCAASGFTFSSYTMSWVRQAPGKGLEWVAYISNGGGSTYYPDTVKGRFTISRDNAKNSLYLQMNSLRAEDTAVYYCARHLGGTASFDYWGQGTLVTVSS VL: DIQMTQSPSSLSASVGDRVTITCLASQTIGTWLAWYQQKPGKAPKLLIYVATSLADGVPSRFSGSGSGTDFTLTISSLQPEDFATYYCQQIAYVPWTFGQGTKVEIK", "Degree of reduction (Fold) of koff against hz1E11": 5.9}
{"binder": "M3-L-A1-3-1A12 (hz1E11-133), periplasmic extract (antibody, V domains shown, Library clone expressed in bacteria with IPTG, tested as periplasmic extract; LCDR3 QQNAYAPWT) VH: EVQLVESGGGLVQPGGSLRLSCAASGFTFSSYTMSWVRQAPGKGLEWVAYISNGGGSTYYPDTVKGRFTISRDNAKNSLYLQMNSLRAEDTAVYYCARHLGGTASFDYWGQGTLVTVSS VL: DIQMTQSPSSLSASVGDRVTITCLASQTIGTWLAWYQQKPGKAPKLLIYVATSLADGVPSRFSGSGSGTDFTLTISSLQPEDFATYYCQQNAYAPWTFGQGTKVEIK", "Degree of reduction (Fold) of koff against hz1E11": 30.4}
